In the Human Domainome abundance scans (Beltran et al. 2025):

B1: Zinc finger homeobox protein 4, residues 2562 to 2617; numbered along this chain, Q86UP3 (parent)
chain: RLRTTITPEQLEILYEKYLLDSNPTRKMLDHIAREVGLKKRVVQVWFQNTRARERK

Variants of: B1
Test: abundance fitness (aPCA) (normalised: wild type 0, dead -1); higher = more abundant; growth selection in yeast, the domain comes from the species named
Details: Homo sapiens

Abundance fitness, by site and new letter:
L11: C -0.85; N -0.189; P -1.05; G -0.017; M -0.062; R -0.043; Y -0.159; W -0.203
D30: A -0.108; H -0.269; F -0.372; C -0.431; E -0.088; G -0.052
L20: K 0.035; R -0.162; S -0.193; W -0.124; I -0.079; M -0.112; D -0.333; E -0.092; C -0.236; F -0.062; T -0.19; P -0.652; N -0.122; Q -0.182; A -0.103; G -0.114; V -0.02
S22: W -0.461; N -0.429; L -0.56; D 0.035; M -0.155; C -0.075; E 0.248; K -0.305; F -0.168; G -0.059; I -0.436; Y -0.772; R -0.358; H -0.289; T -0.078; P -0.402; V -0.403
P24: I -0.415; Q -0.929; S -0.968; H -0.847; M -0.687; C -0.777; K -0.948; T -0.947; V -0.82; G -0.852; F -0.503; L -0.639; E -0.976; R -0.925; A -0.861; N -0.754; D -0.679
M28: Q -0.067; C -0.067; G -0.108; K -0.582; R -0.297; Y -0.406; D 0.242; S -0.152; H -0.305; V -0.119; L -0.102; T -0.003; W -0.577; E -0.003; F -0.591; N -0.409; I -0.101; P -1.06
D21: G -0.433; R -0.796; P -0.769; T -0.458; N -0.188; I -0.406; Y -0.5; S -0.433; L -0.474; M -0.673; Q -0.352; W -0.505; V -0.465; K -0.727; F -0.302; C -0.378; E 0.078; A -0.435
L29: Y -0.239; R -0.346; F -0.049; E 0.155; D -0.721; T -0.228; M -0.429; V -0.024; G -0.94; I -0.033; H -0.95; K -0.621; P -0.752; W -0.004; S -0.498; Q -0.124
K17: A -0.289; G -0.513; W -0.58; R -0.258; L -0.508; E -0.081; T -0.109; V -0.552; Q -0.033; H -0.441; M -0.024; N 0.008; S -0.164; Y 0.767; P -0.334
R26: S 0.142; Y 0.867; I 0.917; L 0.24; V 0.223; P -0.236; H -0.017; N 1.41; T 0.52; G -0.143; Q 0.369; E 0.171; K 0.1; W 0.237; M -0.092; D 0.285
I13: D -0.535; H -0.588; T -0.139; M -0.088; W -0.246; R -0.003; N -0.161; S -0.041; G -0.235; Q 0.167; L -0.097; E -0.06; Y -0.017; V -0.072; A 0.003; P -0.68; C -0.389; F -0.084; K 0.173
